Series [1] deals with T1, HIV-1 reverse transcriptase (HIV-RT) (HIV-1, UniProt P04585;P04585 P04585:588-1147,P04585:588-1027). The series is described as follows: filter. The protocol:
(§1) Affinity assays with labeled RNA and HIV-RT. Model RNAs for refinement of the 5' and 3' boundaries and for determination of the effect of substitutions were labeled during transcription with T7 RNA polymerase as described in Tuerk et al. (1990) except that a-^32P-ATP was used, in reactions of 0.5 mM C,G, and UTP with 0.05 mM ATP. Synthetic oligonucleotides and phosphatased transcripts (as in Tuerk et al., 1990) were kinased as described in Gauss et al. (1987). All RNA-protein binding reactions were done in a "binding buffer" of 200 mM KOAc, 50 mM Tris-HCl pH 7.7, 10 mM dithiothreitol with exceptions noted for chemical protection experiments below. RNA and protein dilutions were mixed and stored on ice for 30 minutes then transferred to 37° C. for 5 minutes. In binding assays the reaction volume was 60 μl of which 50 μl was assayed. Each reaction was suctioned through a pre-wet (with binding buffer) nitrocellulose filter and rinsed with 3 mls of binding buffer after which it was dried and counted for assays or subjected to elution and assayed for chemical modification. In comparisons of binding affinity, results were plotted and the protein concentration at which half-maximal binding occurred (the approximate Kd in conditions of protein excess) was determined graphically.

In series [2] the target is T1, HIV-1 reverse transcriptase (HIV-RT). Briefly: filter; specific binding abolished. As to the method: as §1
Series [3] has the same target. Briefly: filter; no effect on binding. As to the method: as §1
Series [4] has the same target. The series is described as follows: filter; no difference in affinity. The protocol: as §1
Series [5] shares this target. The series is described as follows: filter; no 3' helix. The protocol:
as §1

Series [6] has the same target. Briefly: filter; little difference in affinity. The protocol:
as §1

For series [7] the target is unchanged. Briefly: filter; section II states 5-fold decrease on removal of both Us. As to the method:
as §1

The target is the same in series [8]. The series is described as follows: filter; binds with high affinity. As to the method: as §1
Series [9] has the same target. The series is described as follows: filter; binding reduced to that of non-specific sequences. The protocol:
as §1

For series [10] the target is unchanged. Briefly: filter; affinity unchanged versus transcripts with two extra 5' Gs. As to the method: as §1

The values below come from US5817785, “Methods of producing nucleic acid ligands” (NeXstar Pharmaceuticals, Inc.).

GGUCCGAAGUGCAACGGGAAAAUG (ssRNA) [ligand B 3' truncation C23-U26]: the binding signal in [1] stood at 7 fold lower affinity.

On to GGUCCAAAGUGCAACGGGAAAAUGCACU (ssRNA) [ligand B G4-C13 to A-C], for which the binding signal in [2] was at least 100 fold lower affinity.

In [3], GGUCCCAAGUGCAAGGGGAAAAUGCACU (ssRNA) [ligand B G4-C13 to C-G] displayed a binding signal of 1 fold vs ligand B.

As for GGUCCGAAGUGCAACGGGAAAAUGC (ssRNA) [ligand B 3' truncation A24-U26], the binding signal in series [4] was determined as 1 fold vs ligand B.

GGUCCGAAGUGCAACGGGAAAA (ssRNA) [ligand B 3' truncation U21-U26 (no Stem 2)] yielded a binding signal in series [5] of about 70 fold lower affinity.

For GGACCGAAGUGCAACGGGAAAAUGCACU (ssRNA) [ligand B U1A], the binding result in series [6] is “binds”.

Molecule GGUCCGAAGUGCAACGGGAAAAU (ssRNA) [ligand B 3' truncation G22-U26] returned a binding signal in [1] of about 12 fold lower affinity.

As to GGUGCGAAGUGCAACGCGAAAAUGCACU (ssRNA) [ligand B C2-G15 to G-C], the binding result in series [1] is recorded as “no binding”.

Consider GGCCCGAAGUGCAACGGGAAAAUGCACU (ssRNA) [ligand B U1C], for which the binding signal in series [1] is about 20 fold lower affinity.

In the case of GGUCGGAAGUGCAACCGGAAAAUGCACU (ssRNA) [ligand B C3-G14 to G-C], the binding signal in series [1] is about 10 fold lower affinity.

In turn, GGCCGAAGUGCAACGGGAAAAUGCACU (ssRNA, [none]) [HIV-RT ligand C of FIG. 2 (no 5' U)] returned a binding signal in series [7] of about 20 fold lower affinity.

Turning to UCCGAAGUGCAACGGGAAAAUGCACU (ssRNA, 2'-OMe at the 12 riboses of Stem 2 (A6-A11, U21-U26)) [ligand B with 2'-methoxy Stem 2 (FIG. 7 C)], in series [8], the binding result was “binds”.

As for GGUCCGAAGUGCAACGGAAAAAUGCACU (ssRNA) [ligand B G16A], the binding result in series [2] is listed as “no binding”.

The molecule GGUCCAAAGUGCAAUGGGAAAAUGCACU (ssRNA) [ligand B G4-C13 to A-U] returned a binding signal in [1] of about 20 fold lower affinity.

In the case of GGCGAAGUGCAACGGGAAAAUGCACU (ssRNA) [HIV-RT ligand D of FIG. 2 (5' U and next C removed)], in series [9], the binding result is on record as “no binding”.

Consider UCCGAAGUGCAACGGGAAAAUGCACU (ssRNA) [synthetic ligand B with 5'-terminal U1], for which the binding result in series [10] is given as “binds”.
